# Laboratory results reported in the RNAGym collection of RNA variant scans (doi:10.1073/pnas.2313332121).
# Fewer inactive variants are shown than the library holds.
# B1: TPR 5TU (parent)
# chain: GGAUCUUCUCGAUCUAACAAAAAAGACAAAUCUGCCACAAAGCUUGAGAGCAUCUUCGGAUGCAGAGGCGGCAGCCUUCGGUGGCGCGAUAGCGCCAACGUUCUCAACUAUGACACGCAAAACGCGUGCUCCGUUGAAUGGAGUUUAUCAUG
# Variants of: B1
# Test: polymerase ribozyme fitness, log enrichment relative to wild type (log ratio); higher = more active; in vitro selection for triplet polymerase activity
# Method in brief: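 Fitness compares each genotype's enrichment to that of the wild type on a logarithmic scale, averaging replicates with inverse-variance weights. The logarithm is base 2. Enrichment came from Illumina sequencing of input and output libraries after one triplicate round of in vitro selection, which included frozen incubation at −7 °C, of PCR-built, transcribed mutant libraries of each subunit of a heterodimeric triplet polymerase ribozyme. Only genotypes with ≥10 input reads and ≥1 read per output were kept.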
row,Variant,polymerase ribozyme fitness (log ratio)
1,A41U C54U,-0.75
2,A41U A52G C96A,-3.24
3,G42U G59A,≤ -4.2
4,G42A G62A G65U G136U,≤ -4.2
5,G42U A52C A66G C76A U90G C95A A106C C108G,≤ -4.2
6,G42A G48A U53A C76A C93G,≤ -4.2
7,G42U G92C,-3.85
8,G42C A60G C79A C87U C105G C118A G124C,≤ -4.2
9,G42A U82G A91G G133A U134C G140C,≤ -4.2
10,A41U G46A U61A G84U C105U C118U,-3.26
11,C43G A47C U104G,≤ -4.2
12,C43G G50A C85U,≤ -4.2
13,C43U C99G,≤ -4.2
14,G42A G50C,≤ -4.2
15,G42C U127G A150G,≤ -4.2
16,A41U G42A U44C A64U C76G C96U A107U,≤ -4.2
17,G42U U55G G59A G88U C96G A98G,≤ -4.2
18,C43G A97U C123U C125A U148G,≤ -4.2
19,G42A A52C G94U A97G U144A,≤ -4.2
20,A41U C95U C99A U146G,-2.29
21,G42C C43U A60G C87A C108G A121G A142C,≤ -4.2
22,G42U G62U C63A C69U C99A C103G C108A,≤ -4.2
23,C43U C87U,-3.73
24,G42C G80C G86U C118U A121G A150G,≤ -4.2

row,Variant,polymerase ribozyme fitness (log ratio)
1,A41U U55A A66G C93U A110G G140A,≤ -4.2
2,G42C U61A C75G C93A,≤ -4.2
3,A41U A49U,-2.28
4,G42A,-3.47
5,G42U,-3.47
6,G42C,-3.77
7,C43G A52U A142C U144A,≤ -4.2
8,G42U U55A,-4.17
9,A41U C123G,-1.42
10,C43U A52C G83U A91U,≤ -4.2
11,A41U C54A G92A,≤ -4.2
12,G42C U56A C79A,≤ -4.2
13,C43A U56A G67A G88A G112C C114U,≤ -4.2
14,A41U G48U C57G C85U A120U,-3.4
15,A41U U53G U56C U146C U151G,≤ -4.2
16,G42A C76U G81U G83C A110U C114G,≤ -4.2
17,A41U C85A,-3.35
18,G42U A98G U139C,≤ -4.2
19,C43A C93G G133A,≤ -4.2
20,C43U C85G G88A C93G A97U C125A C132G G140C,≤ -4.2
21,A41U U77A,≤ -4.2
22,G42A A49C G62C U77C G88A C96A C132G,≤ -4.2
23,G42A C72U A91U,≤ -4.2
24,A41U,-0.621

row,Variant,polymerase ribozyme fitness (log ratio)
1,C43G U45G U134C,≤ -4.2
2,C43A C54U G71C C103U A115U G117U,≤ -4.2
3,A41U G46A G59A G86C,≤ -4.2
4,C43G,-4.17
5,C43A,-4
6,C43U,-4.01
7,G42C A49C A52C C75U C85U A91U,≤ -4.2
8,G42C C72U G92C C96U,≤ -4.2
9,A41U A52U C57U U61C,≤ -4.2
10,A41G U61A A113U,-2.93
11,A41U U56A,-0.813
12,C43A C63U C69A G94A C123A U134A G141C,≤ -4.2
13,A41U C85U A122G,-1.39
14,G42C G133C G143C,≤ -4.2
15,A41U G92A,-3.1
16,C43G C54A C93U A107G,≤ -4.2
17,G42U A91U,≤ -4.2
18,G42A C54G A91U,≤ -4.2
19,A41U A47U C99G A107U,≤ -4.2
20,A41U G92U G141A,-1.22
21,G42U C85G G86C U90G,≤ -4.2
22,G42C A52G U55A U56A G68A,≤ -4.2
23,A41U A52U U55C A66U,≤ -4.2
24,A41U C99A A107U G117A A122U G128A,≤ -4.2

row,Variant,polymerase ribozyme fitness (log ratio)
1,A41U C51U C85A A115U A142U,≤ -4.2
2,G42C U45A C79A G86A U104C A107C,≤ -4.2
3,G42C U55A,-4.09
4,C43G C85U C99U A120C G128U A147U,≤ -4.2
5,G42C U111A,≤ -4.2
6,G42U C76A C93U C96U U145C,≤ -4.2
7,C43U G50A G80C C95A A121U A150C,≤ -4.2
8,A41U A89G U90C G94A A121C,≤ -4.2
9,A41U C54A C93A G126U,≤ -4.2
10,A41U C72G C76U A119G U134G A142U,≤ -4.2
11,C43A U44G U45A,≤ -4.2
12,C43U C96A C116G A137U,≤ -4.2
13,G42A G46U U55G C72G,≤ -4.2
14,G42C U53G G71A G92C C105G A137G,≤ -4.2
15,C43U G71A U82A C95A A97U C103A G126A C149U,≤ -4.2
16,C43U C116G,-3.65
17,A41U G88C,≤ -4.2
18,G42A U61A G86A,≤ -4.2
19,G42C U61A A64G A107G U130C,≤ -4.2
20,G42C G84A A122U,≤ -4.2
21,C43U C51U U53G A73G C96G G126U,≤ -4.2
22,A41U A49G G58C G92A C95A C123A,≤ -4.2
23,A41U C99A A106U C118A A119G U134C,≤ -4.2
24,G42A G59A G80A,≤ -4.2

row,Variant,polymerase ribozyme fitness (log ratio)
1,G42C C95U,-4.14
2,C43U G80A A115G,≤ -4.2
3,G42C G143C,≤ -4.2
4,G42U G68C G94U,≤ -4.2
5,A41U A60U G84A C95G C105U A110U,≤ -4.2
6,G42C G46A C75G A91G U102G G133U G152A,≤ -4.2
7,G42C C87U A113C C118G G141C,≤ -4.2
8,G42U A73C C95U A98C U144A,≤ -4.2
9,G42A C79U U139A U145A C149G,≤ -4.2
10,C43G U53A G81U U82C,≤ -4.2
11,C43G C125A U146A U148A,≤ -4.2
12,C43U C54U G140U,≤ -4.2
13,G42C G86U A150U,≤ -4.2
14,G42A C69G C72G C96U G143A,≤ -4.2
15,G42U G58A G70U A73G G84U C85U U144G A150U,≤ -4.2
16,G42U C76A G81A G124C,≤ -4.2
17,A41U G86A A89U C114U,-4.16
18,C43A U55A G92A,≤ -4.2
19,A41U C57G C123A,-2.99
20,G42U C57G G58A C85G,≤ -4.2
21,A41U A52C C76U,-3.25
22,G42A A66U A89G U145A,≤ -4.2
23,G42U C116A U135G,≤ -4.2
24,G42U C93A C96U,≤ -4.2

row,Variant,polymerase ribozyme fitness (log ratio)
1,A41U G141A A150G,-4.16
2,G42A G59U,-3.95
3,G42C C75G,≤ -4.2
4,A41U C96U A122C,-1.02
5,C43G A64C A73C C87A C105G,≤ -4.2
6,A41U C57G A120G,-2.19
7,A41U A47C G59U U61A A66U C85G A107C U148C,≤ -4.2
8,G42C G46C G70C C95G U101G C129A C132G,≤ -4.2
9,G42C G59A C93G A106C,≤ -4.2
10,C43A A52G G83A G124U G143A,≤ -4.2
11,C43U A147U,-4.06
12,G42C G48U U61A A110U,≤ -4.2
13,G42U C63U G68A C95U G112U U146G,≤ -4.2
14,A41U G70A,-3.15
15,G42U C43G G86U G94U U144A,≤ -4.2
16,C43U A119G,≤ -4.2
17,G42A G88A C96A C118G G126U,≤ -4.2
18,G42A G80C G86C,≤ -4.2
19,G42U G48A U55A C118A A137G,≤ -4.2
20,C43G G83A,≤ -4.2
21,A41U C131G,≤ -4.2
22,G42A G71U G126A A138C,≤ -4.2
23,A41U G81A,-0.718
24,C43U G58A G86A U90G U144A,≤ -4.2

row,Variant,polymerase ribozyme fitness (log ratio)
1,A41U U102C U146G,-3.93
2,C43U A49G G84C G140U U146G,≤ -4.2
3,G42C U56G G68U U78A C93U A142C,≤ -4.2
4,A41U G58A A60U C93G,≤ -4.2
5,G42A G46U U82A A121U,-4.16
6,G42A G83C C96G C105U A110G U139C,≤ -4.2
7,G42A U55A C85U A97U G140C,≤ -4.2
8,G42A G81U A91C G92U C95G A107C C108A C114G G141A,≤ -4.2
9,C43A G92C,≤ -4.2
10,G42U C54G C57U G65A G92C A110C,≤ -4.2
11,C43U C69U A91C A137C,≤ -4.2
12,G42U G65C G70A C76A G86U U139G A142U,≤ -4.2
13,A41U G58A G81C,-0.606
14,G42C U56A C85U C95A U127C G143U,≤ -4.2
15,A41U U56A G84U C118A C125G,-4.09
16,C43U C54A C79U A91U A142U G143A,≤ -4.2
17,C43U C51A G86U G126A A137C,≤ -4.2
18,A41U G74U C75A A91G U145A U151G,≤ -4.2
19,G42A C54G C95U A107U C118G,≤ -4.2
20,A41U U55G,-0.663
21,A41U G42C C76G,≤ -4.2
22,A41U G86U,-1.92
23,C43A C54U,≤ -4.2
